# Data from patent US20180009859A1, “PHARMACOLOGICAL MODULATORS OF GABAA RECEPTORS AND THEIR USE” (priority 2015, published 2018).
# Where two headings read alike, the source gives them in different places.
# B1: rMmTX1: recombinant MmTX1 from a periplasmic expression system (protein)
# peptide: LTCKTCPFTTCPNSESCPGGQSICYQRKWEEHRGERIERRCVANCPAFGSHDTSLLCCTRDNCN
# modifications: ends and bridges not checked
# B2: rMmTX2: recombinant MmTX2 from a periplasmic expression system (protein)
# peptide: LTCKTCPFTTCPNSESCPGGQSICYQRKWEEHHGERIERRCVANCPAFGSHDTSLLCCTRDNCN
# modifications: ends and bridges not checked
# B3: ^125I-rMmTX2: MmTX2 radioactively labeled by lacto-peroxidase-catalyzed iodination (protein)
# peptide: LTCKTCPFTTCPNSESCPGGQSICYQRKWEEHHGERIERRCVANCPAFGSHDTSLLCCTRDNCN
# modifications: ends and bridges not checked; also: 125I iodination (lactoperoxidase-catalysed), site not given here
# B4: Fas 2: animal toxin that targets AChE (protein, UniProt P0C1Z0 1-61, looked up)
# Fasciculin-2: TMCYSHTTTSRAILTNCGENSCYRKSRRHPPKMVLGRGCGCPPGDDNLEVKCCTSPDKCNY
# modifications: ends and bridges not checked
# B5: sMmTX1-HRK: sMmTX1 mutated at 4His, 28Arg, 47Lys and acetylated at the N-terminus, SEQ ID NO: 21 (peptide)
# chain: Ac-LTCHTCPFTTCPNSESCPGGQSICYQRRWEEHRGERIERRCVANCPKFGSHDTSLLCCTRDNCN
# modifications: ends and bridges not checked
# B6: MmTX1 (protein, listed as Micrurus mipartitus)
# chain: LTCKTCPFTTCPNSESCPGGQSICYQRKWEEHRGERIERRCVANCPAFGSHDTSLLCCTRDNCN
# modifications: ends and bridges not checked
# Assays:
# GABAA receptors in SPMs [1] = test: [^3H]muscimol competition for binding to SPMs; design: species or system rat
# [2] = target: GABAA receptors in rat brain synaptic plasma membranes (SPMs) (rat)
# [3] = target: GABAA receptors in rat brain synaptic plasma membranes (SPMs) (rat); remark: listed apart in the source
# [4] = target: GABAA receptors in rat brain synaptic plasma membranes (SPMs) (rat); test: ratio of the kinetic constants, radioligand binding to rat brain SPMs
# [5] = target: GABAA receptors in rat brain synaptic plasma membranes (SPMs) (rat); remark: listed apart in the source
# hippocampal neurons [6] = type: cell-based, mouse; conditions: 100 μM PTX, n=5
# GABAA receptors in SPMs [7] = type: binding, rat; conditions: for displacing ^125I-rMmTX2 (in words): SPMs; for Ki: read-out: equilibrium inhibition constant (Ki)
# [8] = target: GABAA receptors of mouse hippocampal neurons (mouse); test: cell-based or functional assay
# [9] = target: GABAA receptors in rat brain synaptic plasma membranes (SPMs) (rat); test: competition with 125I-rMmTX2 for rat brain SPMs
# [10] = target: GABAA receptors in rat brain synaptic plasma membranes (SPMs) (rat); test: competition with 40 nM [3H]muscimol for rat brain SPMs, nonlinear fit for an allosteric modulator
# [11] = target: GABAA receptors in rat brain synaptic plasma membranes (SPMs) (rat); test: competition with 40 nM [3H]muscimol for rat brain SPMs
# hippocampal neurons [12] = test: Calcium imaging of hippocampal neurons (Ca^2+ oscillations); type: cell-based, rat; conditions: 0.3 μM muscimol alone, n=9
# [13] = system: GABAA receptors of hippocampal neurons; type: cell-based, mouse
# [14] = target: GABAA receptors of hippocampal neurons; conditions: reported values; cited from earlier work
# mice [15] = conditions: injection into mouse brain
# mice [16] = conditions: for activity when injected intravenously: mouse, in vivo
# GABAA receptors in SPMs [17] = type: binding, rat
# α1β2γ2 GABAA receptor = α1β2γ2 GABAA receptor (Rattus norvegicus, UniProt P62813+P63138); type: cell-based
# [18] = sigmoidal dose-response fit, read-out: EC50 for reducing ^125I-MmTX2 binding to SPMs
# [19] = read-out: EC50 for reducing ^125I-MmTX2 binding to SPMs
# Sequence of α1β2γ2 GABAA receptor (P63138 25-474): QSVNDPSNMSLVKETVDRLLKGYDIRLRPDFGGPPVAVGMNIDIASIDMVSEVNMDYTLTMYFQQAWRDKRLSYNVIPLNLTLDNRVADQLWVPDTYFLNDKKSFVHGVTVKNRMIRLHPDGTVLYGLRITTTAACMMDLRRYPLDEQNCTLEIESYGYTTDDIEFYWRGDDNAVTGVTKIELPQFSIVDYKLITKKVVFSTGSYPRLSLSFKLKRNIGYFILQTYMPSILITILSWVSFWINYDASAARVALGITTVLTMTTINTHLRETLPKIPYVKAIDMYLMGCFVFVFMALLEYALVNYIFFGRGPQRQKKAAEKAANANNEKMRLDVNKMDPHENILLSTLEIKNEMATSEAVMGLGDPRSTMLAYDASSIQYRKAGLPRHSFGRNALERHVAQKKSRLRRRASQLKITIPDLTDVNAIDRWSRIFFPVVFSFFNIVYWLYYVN
# Sequence of α1β2γ2 GABAA receptor (P62813 28-455): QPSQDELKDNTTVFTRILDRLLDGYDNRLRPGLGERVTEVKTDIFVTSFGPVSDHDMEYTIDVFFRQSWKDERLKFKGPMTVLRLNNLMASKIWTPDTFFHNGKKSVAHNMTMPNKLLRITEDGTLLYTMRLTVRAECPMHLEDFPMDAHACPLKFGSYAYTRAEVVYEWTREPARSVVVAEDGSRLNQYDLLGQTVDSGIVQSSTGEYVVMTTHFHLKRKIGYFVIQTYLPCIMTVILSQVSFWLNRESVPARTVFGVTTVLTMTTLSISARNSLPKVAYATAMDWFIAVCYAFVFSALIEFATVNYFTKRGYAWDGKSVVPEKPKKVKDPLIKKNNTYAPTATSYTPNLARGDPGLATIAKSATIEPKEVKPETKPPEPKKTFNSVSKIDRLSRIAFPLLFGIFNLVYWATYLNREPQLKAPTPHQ
# Sequence of α1β2γ2 GABAA receptor (P18508 39-466, further chain): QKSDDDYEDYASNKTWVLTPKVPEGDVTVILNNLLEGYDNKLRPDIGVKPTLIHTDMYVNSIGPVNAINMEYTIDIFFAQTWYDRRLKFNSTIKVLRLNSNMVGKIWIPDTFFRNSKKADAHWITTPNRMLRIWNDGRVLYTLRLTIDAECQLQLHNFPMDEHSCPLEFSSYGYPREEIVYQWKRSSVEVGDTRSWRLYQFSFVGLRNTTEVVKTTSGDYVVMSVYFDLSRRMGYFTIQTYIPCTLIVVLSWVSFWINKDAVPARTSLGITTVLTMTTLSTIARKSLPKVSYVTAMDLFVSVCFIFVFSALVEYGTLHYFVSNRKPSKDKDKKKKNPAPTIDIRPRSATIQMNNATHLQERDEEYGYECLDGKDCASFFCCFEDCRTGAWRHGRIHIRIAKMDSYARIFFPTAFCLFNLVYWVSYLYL
molecule,measurement,setting,value
"NCc1cc(=O)[nH]o1 [[^3H]muscimol, reference compound]",Kd,"GABAA receptors in SPMs [1]; SPMs, read-out: Kd of [^3H]muscimol (constrained fit parameter)",1.75 nM
^125I-rMmTX2 (peptide),t1/2 of dissociation,[2],7.97 min
same,Bmax (fmol/mg of synaptic protein),[3],264
same,Kd,[3],0.51 nM
same,half time duration of dissociation,[3],8 min
same,koff,[3],0.0014 s⁻¹
same,kon,[3],3.7e+06 M⁻¹ s⁻¹
same,Kd,[4],0.38 nM
same,Bmax (fmol/mg of SPM protein),[5],532
same,Kd,[5],0.76 nM
same,ratio of Bmax with/without PTX,[5],2.01
picrotoxin [PTX],action potential frequency,hippocampal neurons [6],increases more dramatically when compared to sMmTX1
same,nH for potentiating ^125I-MmTX2 binding capacity,GABAA receptors in SPMs [7],+1.05±1.16
same,EC50,GABAA receptors in SPMs [7]; read-out: EC50 for potentiating ^125I-MmTX2 binding capacity to SPMs,3700 nM
"NCCCC(=O)O [GABA, γ-aminobutyric acid]",nH (Hill slope) for reducing ^125I-MmTX2 binding,GABAA receptors in SPMs [7],0.99±0.18
COc1cc2c3cc1Oc1cc(ccc1O)C[C@@H]1c4c(cc(OC)c(O)c4Oc4ccc(cc4)C[C@@H]3N(C)CC2)CC[N+]1(C)C [d-tubocurarine],competition with ^125I-rMmTX2 for binding to SPMs,GABAA receptors in SPMs [7]; ligand 10 μM,no competition is observed
recombinant MmTX1 (rMmTX1) (peptide),"factor of increase of the GABAA current elicited by 5 µM muscimol, with 1 nM rMmTX1",[8],1.24 fold
same,"factor of increase of the GABAA current elicited by 5 µM muscimol, with 10 nM rMmTX1",[8],1.22 fold
same,Ki,[9],3 nM
same,log Ki,[9],-8.52
same,Kd,[10],4.9 nM
same,percent of the total [^3H]muscimol binding capacity competed,[11],40%
"NCc1cc(=O)[nH]o1 [muscimol, reference compound]",frequency of Ca^2+ spikes compared to cells perfused with extracellular saline solution,hippocampal neurons [12],98.0±4.8%
same,IC50,"[13]; 100 nM rMmTX1, read-out: IC50 of muscimol for abolishing the potentiating effect of rMmTX1",1100 nM
same,nH coefficient of GABAA receptor current amplitude,[13]; muscimol alone,1.4
same,EC50,"[13]; muscimol alone, Hill fit, read-out: EC50 of GABAA receptor current amplitude",4100 nM
same,nH (Hill slope) for reducing ^125I-MmTX2 binding,GABAA receptors in SPMs [7],1.08±0.24
same,EC50,GABAA receptors in SPMs [7]; [18],2100 nM
same,EC50,[14],5400 to 24000 nM
COc1ccc(-c2ccc(=N)n(CCCC(=O)O)n2)cc1 [gabazine],nH (Hill slope) for reducing ^125I-MmTX2 binding,GABAA receptors in SPMs [7],1.00±0.07
same,EC50,GABAA receptors in SPMs [7]; [19],200 nM
O=C(O)C1=CCNCC1 [isoguvacine],nH (Hill slope) for reducing ^125I-MmTX2 binding,GABAA receptors in SPMs [7],1.02±0.29
same,EC50,GABAA receptors in SPMs [7]; [18],275000 nM
NCC(=O)O [glycine],competition with ^125I-rMmTX2 for binding to SPMs,GABAA receptors in SPMs [7],does not compete
CN1C(=O)CN=C(c2ccccc2)c2cc(Cl)ccc21 [diazepam],nH (Hill slope) for reducing ^125I-MmTX2 binding,GABAA receptors in SPMs [7],−0.96±0.07
same,EC50,GABAA receptors in SPMs [7]; [19],4900 nM
α-bungarotoxin,competition with ^125I-rMmTX2 for binding to SPMs,GABAA receptors in SPMs [7],no competition is observed
CN1[C@@H]2CC[C@H]1C[C@@H](OC(=O)C(CO)c1ccccc1)C2 (stereo partly shown) [atropine],competition with ^125I-rMmTX2 for binding to SPMs,GABAA receptors in SPMs [7],does not compete
recombinant MmTX2 (rMmTX2) (peptide),Ki,[9],3.7 nM
same,log Ki,[9],-8.44
cardiotoxin [CTX],competition with ^125I-rMmTX2 for binding to SPMs,GABAA receptors in SPMs [7]; ligand 10 μM,does not displace
N[C@@H](CCC(=O)O)C(=O)O [glutamate],competition with ^125I-rMmTX2 for binding to SPMs,GABAA receptors in SPMs [7]; ligand 0.1 mM,does not compete
"wild-type (WT) MmTX2, micrurotoxin2 purified from Micrurus mipartitus venom (peptide)",Ki,[9],0.8 nM
same,log Ki,[9],-9.09
CCCC(C)C1(CC)C(=O)NC(=O)NC1=O (stereo not shown) [pentobarbital],nH (Hill slope) for reducing ^125I-MmTX2 binding,GABAA receptors in SPMs [7],0.98±0.07
same,EC50,GABAA receptors in SPMs [7]; [18],4800 nM
B1,LD50,mice [15],0.027 mg/kg
same,behavioral signs,mice [15],reduced activity combined with severe seizures
same,activity when injected intravenously,mice [16],inactive
same,effect on GABAA receptors in the absence of an agonist,[13],no effect
same,increase of GABAA receptor-mediated currents,[13],up to 7 fold
same,Factor of GABAA current increase,[13]; 0.1 μM muscimol + 100 nM rMmTX1,7.9 ± 2.9 (n = 2)
same,Cl^− current,[13]; 0.1 μM muscimol together with 100 nM rMmTX1,228±30 pA
same,muscimol concentration at the half-maximal potentiating effect of rMmTX1,[13]; 100 nM rMmTX1,about 1 μM
same,Factor of GABAA current increase,[13]; 0.3 μM muscimol + 100 nM rMmTX1,7.5 ± 1.2 (n = 4)
same,inward current,"[13]; 0.3 μM muscimol together with 100 nM rMmTX1, neurons without response to muscimol alone",439±51 pA
same,Factor of GABAA current increase,[13]; 1.0 μM muscimol + 100 nM rMmTX1,1.9 ± 0.4 (n = 3)
same,Factor of GABAA current increase,[13]; 3 μM muscimol + 100 nM rMmTX1,1.4 ± 0.1 (n = 6)
same,factor of GABAA current amplitude increase,"[13]; 5 μM muscimol + 1 nM rMmTX1, n=9",1.24 ± 0.07
same,factor of GABAA current amplitude increase,"[13]; 5 μM muscimol + 10 nM rMmTX1, n=9",1.22 ± 0.03
same,factor of GABAA current amplitude increase,"[13]; 5 μM muscimol + 100 nM rMmTX1, n=9",1.99 ± 0.28
same,factor of GABAA current amplitude increase,"[13]; 5 μM muscimol + 300 nM rMmTX1, n=9",1.69 ± 0.25
same,Factor of GABAA current increase,[13]; 30 μM muscimol + 100 nM rMmTX1,1.0 ± 0.1 (n = 4)
same,Factor of GABAA current increase,[13]; 50 μM muscimol + 100 nM rMmTX1,1.0 ± 0.1 (n = 3)
same,toxin-induced potentiation at high muscimol,[13]; muscimol concentrations greater than 10 μM,do not observe a toxin-induced potentiation
same,part of the total [^3H]muscimol binding capacity competed for,GABAA receptors in SPMs [1]; 40 nM [^3H]muscimol,about 40%
same,Kd,"GABAA receptors in SPMs [1]; 40 nM [^3H]muscimol, allosteric modulator fit, read-out: Kd in competition with [^3H]muscimol",4.9 ± 0.2 nM
same,displacing ^125I-rMmTX2 (in words),GABAA receptors in SPMs [7],equally potent
same,Ki,GABAA receptors in SPMs [7],3 nM
B2,LD50,mice [15],0.010 mg/kg
same,behavioral signs,mice [15],reduced activity combined with severe seizures
same,flaccid paralysis,mice [16]; injected intravenously into mice,no flaccid paralysis
same,activity when injected intravenously,mice [16],inactive
same,displacing ^125I-rMmTX2 (in words),GABAA receptors in SPMs [7],equally potent
same,Ki,GABAA receptors in SPMs [7],3.7 nM
B3,second-order kinetic constant of association (k+1),"GABAA receptors in SPMs [17]; 1 to 4 nM ligand, SPMs",3.7±0.5×10^6 M^−1 s^−1
same,first-order kinetic constant (k−1),GABAA receptors in SPMs [17]; dissociation after 1000-fold excess of unlabeled rMmTX2,0.0014 ± 0.0004 s⁻¹
same,half time duration of dissociation,GABAA receptors in SPMs [17]; dissociation from SPMs,~8 min
same,Kd,"GABAA receptors in SPMs [17]; in the presence of 1 mM PTX, read-out: Kd with PTX",0.76 ± 0.18 nM
same,Kd,"GABAA receptors in SPMs [17]; ratio of both kinetic constants, read-out: true dissociation value (Kd=k−1/k+1)",0.38 ± 0.05 nM
same,Kd,GABAA receptors in SPMs [17]; read-out: Kd (saturation binding at equilibrium),0.51 ± 0.09 nM
B4,competition with ^125I-rMmTX2 for binding to SPMs,GABAA receptors in SPMs [7]; ligand 10 μM,does not compete
B5,effect on α1β2γ2 GABAA receptor currents,"α1β2γ2 GABAA receptor; 100 nM muscimol + 100 nM toxin, −70 mV",currents are potentiated and receptor desensitization tends to accelerate
same,effect on α1β2γ2 GABAA receptor currents,α1β2γ2 GABAA receptor; 300 nM muscimol,potentiating effect is diminished whereas desensitization effect is unaltered
B6,displacing ^125I-rMmTX2 (in words),GABAA receptors in SPMs [7],equally potent
